± gives the standard deviation of the averaged measurements.
Key:
Saccharomyces cerevisiae [1] = assay: protein stability index of tFT-peptide fusion in wild type (PSI (0-1 scale)); higher = more stable (slower turnover); details: genetic background: wild type
Saccharomyces cerevisiae [2] = assay: protein stability index of tFT-peptide fusion (C-terminal peptide) (PSI (0-1 scale)); higher = more stable (slower turnover)
Procedure: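 MPS profiling in S. cerevisiae of the tFT-X12 degron library: putative degron peptides plus stable controls, 12 aa, fused to the C-terminus of a sfGFP-mCherry timer. Cells are FACS-sorted into 8 mCherry/sfGFP bins and deep-sequenced. PSI runs from 0 (unstable) to 1 (stable). Backgrounds are wild type, das1Δ and doa10Δ at 30 °C, and wild type, das1Δ, cdc34-1 and cdc53-1 at 37 °C; 2-3 technical replicates each.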

Saccharomyces cerevisiae [3] = assay: as above; details: genetic background: wild type; temperature: 30 C
Saccharomyces cerevisiae [4] = assay: protein stability index of tFT-peptide fusion in deletion strain of DOA10 (PSI (0-1 scale)); higher = more stable (slower turnover)
Procedure: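 MPS profiling in S. cerevisiae of two library types built from selected 12-aa C-degron peptides (IN1, IN2, LN1, LN3, VN2, R1-R5, W1-W3, Atg1 and Rpa12 C-termini): saturation mutagenesis libraries and C-terminal +1 capping libraries (13 aa). Each peptide is fused to the C-terminus of a sfGFP-mCherry timer, after a GGGS linker. Cells are FACS-sorted into 8 mCherry/sfGFP bins and sequenced. PSI runs from 0 (unstable) to 1 (stable), measured once in wild type and in the das1Δ or doa10Δ background.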

[5] = genetic background: cdc34-1, temperature: 37 C
[6] = genetic background: cdc53-1, temperature: 37 C
[7] = genetic background: das1 deletion, temperature: 30 C
[8] = genetic background: das1 deletion, temperature: 37 C
[9] = genetic background: doa10 deletion, temperature: 30 C
[10] = genetic background: wild type, temperature: 30 C
[11] = genetic background: wild type, temperature: 37 C
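Wherever protein stability index of tFT-peptide fusion (C-terminal peptide) is given: PSI is a weighted mean of sequencing reads over stability bins, variants kept only with over 10 reads, mCherry proximal and sfGFP distal, peptide attached via GGGS linker.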
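Wherever protein stability index of tFT-peptide fusion in deletion strain of DOA10 is given: PSI per variant is the weighted mean of its sequencing read distribution over the sorted stability bins, counting only variants with over 10 reads summed across bins.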
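Wherever protein stability index of tFT-peptide fusion in wild type is given: PSI derived as read-weighted mean over the 8 sorting bins, only variants exceeding 10 total reads kept, mCherry placed adjacent to the peptide and sfGFP distal.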

CLVSLPILLFFR
protein stability index (Saccharomyces cerevisiae [1]): 0.0566 | protein stability index (Saccharomyces cerevisiae [2]; [5]): 0.0435 ± 0.013 | protein stability index (Saccharomyces cerevisiae [2]; [6]): 0.0381 ± 0.0045 | protein stability index (Saccharomyces cerevisiae [2]; [7]): 0.0501 ± 0.019 | protein stability index (Saccharomyces cerevisiae [2]; [8]): 0.0652 ± 0.014 | protein stability index (Saccharomyces cerevisiae [2]; [9]): 0.545 ± 0.023 | protein stability index (Saccharomyces cerevisiae [2]; [10]): 0.0298 ± 0.0067 | protein stability index (Saccharomyces cerevisiae [2]; [11]): 0.0556 ± 0.015 | protein stability index (Saccharomyces cerevisiae [3]): 0.0658 ± 0.021 | protein stability index (Saccharomyces cerevisiae [4]): 0.586

AITLPMCPLLLR
protein stability index (Saccharomyces cerevisiae [1]): 0.207 | protein stability index (Saccharomyces cerevisiae [2]; [5]): 0.0636 ± 0.0091 | protein stability index (Saccharomyces cerevisiae [2]; [6]): 0.047 ± 0.0088 | protein stability index (Saccharomyces cerevisiae [2]; [7]): 0.165 ± 0.017 | protein stability index (Saccharomyces cerevisiae [2]; [8]): 0.204 ± 0.014 | protein stability index (Saccharomyces cerevisiae [2]; [9]): 0.6226 ± 0.0028 | protein stability index (Saccharomyces cerevisiae [2]; [10]): 0.16 ± 0.027 | protein stability index (Saccharomyces cerevisiae [2]; [11]): 0.157 ± 0.0086 | protein stability index (Saccharomyces cerevisiae [3]): 0.256 ± 0.018 | protein stability index (Saccharomyces cerevisiae [4]): 0.649

RVTRLDAIRFRI
protein stability index (Saccharomyces cerevisiae [1]): 0.616 | protein stability index (Saccharomyces cerevisiae [4]): 0.652

GVTRLDAIYFRI
protein stability index (Saccharomyces cerevisiae [1]): 0.229 | protein stability index (Saccharomyces cerevisiae [4]): 0.69

KITLPMCPLLLR
protein stability index (Saccharomyces cerevisiae [1]): 0.253 | protein stability index (Saccharomyces cerevisiae [4]): 0.653

AITLPMCPLLLRC
protein stability index (Saccharomyces cerevisiae [1]): 0.0981 | protein stability index (Saccharomyces cerevisiae [4]): 0.381

AVTLPMCPLLLR
protein stability index (Saccharomyces cerevisiae [1]): 0.261 | protein stability index (Saccharomyces cerevisiae [4]): 0.648

AITLPMCPPLLR
protein stability index (Saccharomyces cerevisiae [1]): 0.546 | protein stability index (Saccharomyces cerevisiae [4]): 0.663

RSLRSLLPLYFR
protein stability index (Saccharomyces cerevisiae [1]): 0.469 | protein stability index (Saccharomyces cerevisiae [4]): 0.702

CLVSLPIALFFR
protein stability index (Saccharomyces cerevisiae [1]): 0.0824 | protein stability index (Saccharomyces cerevisiae [4]): 0.631

RSLWVLLPLYFR
protein stability index (Saccharomyces cerevisiae [1]): 0.284 | protein stability index (Saccharomyces cerevisiae [4]): 0.605

PLYMCSVGCWFR
protein stability index (Saccharomyces cerevisiae [1]): 0.462 | protein stability index (Saccharomyces cerevisiae [4]): 0.643

AITLPMCPLLLRS
protein stability index (Saccharomyces cerevisiae [1]): 0.261 | protein stability index (Saccharomyces cerevisiae [4]): 0.554
